For one protein, Km, kcat and kcat/Km results are on record in publication PMC3622683, “Purification, Gene Cloning, and Biochemical Characterization of a β-Glucosidase Capable of Hydrolyzing Sesaminol Triglucoside from Paenibacillus sp. KB0549” (PLoS ONE, 2013).

Usually Km stands for the substrate concentration at which the rate is half of its maximum. As a reminder, the kcat is the number of substrate molecules converted per active site and unit of time at saturation. For orientation: kcat/Km means the turnover number divided by the Michaelis constant.

What all share (details): pH 7.0, 37°C, potassium phosphate
Substrate in series [1]: O=[N+]([O-])c1ccc(O[C@@H]2OC[C@@H](O)[C@H](O)[C@H]2O)cc1
Kind of series: purified protein. Type of series: biochemical, Paenibacillus relictisesami.

Substrate in series [2]: O=[N+]([O-])c1ccc(O[C@@H]2O[C@H](CO)[C@@H](O[C@@H]3O[C@H](CO)[C@@H](O)[C@H](O)[C@H]3O)[C@H](O)[C@H]2O)cc1
Put plainly: purified protein. Type of series: biochemical, Paenibacillus relictisesami.

Substrate in series [3]: OC[C@H]1O[C@@H](OC[C@H]2O[C@@H](Oc3cc4c(cc3[C@H]3OC[C@H]5[C@@H]3CO[C@@H]5c3ccc5c(c3)OCO5)OCO4)[C@H](O[C@@H]3O[C@H](CO)[C@@H](O)[C@H](O)[C@H]3O)[C@@H](O)[C@@H]2O)[C@H](O)[C@@H](O)[C@@H]1O
Put plainly: HPLC of STG hydrolysis, initial velocities. Type of series: biochemical, Paenibacillus relictisesami. On the procedure:
HPLC of STG hydrolysis, initial velocities on rPSTG (recombinant PSTG, STG-hydrolyzing β-glucosidase) | k cat and K m values of rPSTG for hydrolysis of STG were determined

Substrate in series [4]: O=[N+]([O-])c1ccc(O[C@@H]2O[C@H](CO)[C@H](O)[C@H](O)[C@H]2O)cc1
Put plainly: purified protein.

Substrate in series [5]: O=[N+]([O-])c1ccc(O[C@@H]2O[C@H](CO)[C@@H](O)[C@H](O)[C@H]2O)cc1
Put plainly: purified protein.

B1: rPSTG (recombinant PSTG, STG-hydrolyzing β-glucosidase) (Paenibacillus relictisesami) (protein)
chain: MSERRDLKALISQMTLEEKASLCTGRDTWHTQPIERLGIPSVMMTDGPHGLRKQKAASDHLGLFDSVPSTCFPSAVGVASSWNRDLIERMGQALGKECQAENVAVLLGPGANIKRSPLCGRNFEYFSEDPYLSSEMAAHHIMGVQSQGVGTSLKHFAANNQEYRRMTSDSVVNERTLREIYLTSFEGAVKKARPWTVMCSYNKVNGEYAAENERLLTGILKQEWGHEGFVVSDWGAVNDRVKSLAAGLELEMPHEGAGTKQIIEAVESGQLAEEKLDLAVERLLTVIFRSVDQHKEGAVYDPEAHHKLAREIAAESMVLLKNEDRILPLKREGTIAVIGELAKVPRYQGSGSSQIKPTRLDDIVFELAASAGEHARVTYTQGYDLKSDDINAVLTEEALQAAKEASVAVLFAGLPKRYESEGFDRKHMRMPDNQIALIEAVAAVQPNLVVVLCNGAPIEMPWLPQAKAVLEAYLGGQALGGAIADLLFGDANPSGKLAETFPVQLSDNPSFLNFPGEGDRVEYREGLFVGYRYYDKKQLRPLFPFGHGLSYTTFAYSNLSVDKKEILDTETLKVCVNVKNTGERAGKEIVQLYVRDVESSVIRPLKELKGFDKVFLAPGEEKTLTFELGKRSFAYYDPSIKDWMVETGAFEILIGRSSQDIVLAETVMVRSTVSRKIVYHRNSTVADLMLTEKGAAFAQKLRGMIPFGETVGEEYAEMLEAFKESVPLRGLISFSAGRFTEEDLSKLLEYLNG
notes: full-length 753 aa, 83,298 Da, no signal peptide; expressed from pDEST17 in E. coli BL21-AI, HisTrap purified (tag cleavage not mentioned); likely tetramer, 310 kDa; GH3
For B1, the Michaelis-Menten constant (Km) came to 35700 ± 12200 µM in series [1]; 230 ± 40 µM in series [2]; 1400 ± 400 µM in series [3]; 29000 ± 7000 µM in series [4]; 100 ± 10 µM in series [5]. Moreover, the kcat was 69 s⁻¹ in series [1]; 0.47 ± 0.03 s⁻¹ in series [2]; 9.3 ± 0.8 s⁻¹ in series [3]; 2.06 s⁻¹ in series [4]; 44.3 s⁻¹ in series [5]. Besides, the kcat/Km in series [1] worked out at 1930 M⁻¹ s⁻¹; in series [2], 2040 M⁻¹ s⁻¹; in series [4], 71 M⁻¹ s⁻¹; in series [5], 426000 M⁻¹ s⁻¹.
